Results on 1 molecule are retold here after article PMC5603589 (2017).

The test has as its target GST-AKT1 CA (85 kDa) (UniProt P31749 1-480). Description: BLI. On the technique in general: Biolayer interferometry detects binding as a change in optical thickness at a sensor tip.

A word on the Kd: it is the free concentration of one partner at which half of the binding sites on the other are occupied at equilibrium, for simple one-to-one binding. A high value points to weaker binding.

Chain of GST-AKT1 CA (85 kDa) (P31749 whole entry): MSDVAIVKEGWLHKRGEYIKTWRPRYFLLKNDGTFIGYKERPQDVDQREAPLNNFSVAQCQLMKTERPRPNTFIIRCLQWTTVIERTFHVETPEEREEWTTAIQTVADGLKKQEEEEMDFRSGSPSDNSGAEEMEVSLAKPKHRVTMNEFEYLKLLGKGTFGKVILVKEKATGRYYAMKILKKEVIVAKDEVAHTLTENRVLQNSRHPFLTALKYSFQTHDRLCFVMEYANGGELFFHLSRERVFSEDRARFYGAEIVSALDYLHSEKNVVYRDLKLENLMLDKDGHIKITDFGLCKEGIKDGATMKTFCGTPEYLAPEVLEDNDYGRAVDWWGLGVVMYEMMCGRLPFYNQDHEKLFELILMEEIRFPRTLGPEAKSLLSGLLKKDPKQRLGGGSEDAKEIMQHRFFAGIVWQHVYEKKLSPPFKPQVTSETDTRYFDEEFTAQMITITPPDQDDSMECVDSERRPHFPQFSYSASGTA

B1: GST-PALLD third IgC domain (40 kDa) (domain or fragment)
chain: PFFEMKLKHYKIFEGMPVTFTCRVAGNPKPKIYWFKDGKQISPKSDHYTIQRDLDGTCSLHTTASTLDDDGNYTIMAANPQGRIS
modifications: labelled by biotin
In turn, B1 showed a Kd of 0.0772 nM.
